Here are results for 1 molecule from paper PMC12931730 (2025).

Assay [1] has as its target T1, lysin motif (LysM) peptidoglycan-binding domain-containing protein (LPDP), recombinant (Staphylococcus lentus, UniProt A0A8I0UA09). Briefly: MST; in the presence of tubuloside B.
For assay [2], the target named is T1, lysin motif (LysM) …. Briefly: MST.

B1: PDZ and LIM domain 3 (PDLIM3) (natural protein)
chain: MPQNVVLPGPAPWGFRLSGGIDFNQPLVITRITPGSKAAAANLCPGDVILAIDGFGTESMTHADAQDRIKAASYQLCLKIDRAETRLWSPQVSEDGKAHPFKINLEAEPQEFKPIGTAHNRRAQPFVAAANIDDKRQVVSASYNSPIGLYSTSNIQDALHGQLRGLIPGSLQNEPTASVPPQSDVYRMLHDNRDDPAAPRQSGSFRVLQDLVNDGPDDRPAGTRSVRAPVTKVHGGAGSAQRMPLCDKCGSGIVGAVVKARDKYRHPECFVCADCNLNLKQKGYFFVEGELYCETHARARTRPPEGYDTVTLYPKA
modifications: fluorescently labeled with the Monolith His-Tag Labeling Kit (in the microscale thermophoresis only)
For B1, the results for the equilibrium dissociation constant (Kd) in assay [1] and in assay [2] were 4550 nM and 930 nM, respectively.

In general, Kd refers to the equilibrium constant for the complex coming apart.
